Numbered stars: 1 amine (or outer) side, 2 acyl side, 3 side chain; on linkers, the order of the positions; unused ones are H or OH. Bridge positions count the residues as written; N and C are the ends. Ends that are not written are not given here. TBMB = c1c(C[*:1])cc(C[*:3])cc1C[*:2]
The binders below were run against T1, human plasma Kallikrein (human, UniProt P03952 20-638) (assay: phage binding assay).
T1 construct: also called hPK; human PK
T1 sequence (P03952 20-638 limits assumed): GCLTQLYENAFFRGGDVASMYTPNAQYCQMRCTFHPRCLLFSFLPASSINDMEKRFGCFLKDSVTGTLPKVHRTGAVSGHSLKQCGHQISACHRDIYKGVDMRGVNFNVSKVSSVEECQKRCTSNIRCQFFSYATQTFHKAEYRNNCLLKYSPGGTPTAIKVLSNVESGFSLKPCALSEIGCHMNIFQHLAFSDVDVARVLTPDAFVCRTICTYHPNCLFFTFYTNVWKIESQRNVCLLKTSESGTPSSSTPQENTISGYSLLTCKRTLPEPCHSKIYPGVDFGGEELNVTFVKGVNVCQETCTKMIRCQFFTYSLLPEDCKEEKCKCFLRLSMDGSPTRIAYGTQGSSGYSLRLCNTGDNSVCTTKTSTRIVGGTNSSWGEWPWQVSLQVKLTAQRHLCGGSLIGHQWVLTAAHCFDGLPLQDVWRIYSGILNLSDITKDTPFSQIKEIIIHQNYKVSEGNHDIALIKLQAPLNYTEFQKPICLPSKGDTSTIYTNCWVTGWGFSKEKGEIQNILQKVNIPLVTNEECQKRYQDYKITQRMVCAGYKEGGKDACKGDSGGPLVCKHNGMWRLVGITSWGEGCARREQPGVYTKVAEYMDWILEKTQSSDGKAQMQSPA
In the case of CAWPARCTHADLC (linker 1-7-13 via TBMB, on phage), the “BINDING ASSAY SIGNAL” value is reported as 79.
CAWPARCTHTDFC (linker 1-7-13 via TBMB, on phage) was tested, and the “BINDING ASSAY SIGNAL” value was 80.
For CAWPARCTHTDLC (linker 1-7-13 via TBMB, on phage), the “BINDING ASSAY SIGNAL” value was 92.
For CAWPARCTHTHLC (linker 1-7-13 via TBMB, on phage), the “BINDING ASSAY SIGNAL” value was 66.
With CAWPARCTHVDLC (linker 1-7-13 via TBMB, on phage) the “BINDING ASSAY SIGNAL” value was 82.
In the case of CAWPARCTHYDLC (linker 1-7-13 via TBMB, on phage), the “BINDING ASSAY SIGNAL” value is reported as 70.
In the case of CEWPARCLHTDLC (linker 1-7-13 via TBMB, on phage), the “BINDING ASSAY SIGNAL” value is reported as 60.
For CHWPARCMHQDLC (linker 1-7-13 via TBMB, on phage), the “BINDING ASSAY SIGNAL” value was 71.
In the case of CHWPARCTHQDLC (linker 1-7-13 via TBMB, on phage), the “BINDING ASSAY SIGNAL” value is reported as 110.
CHWPARCTHQELC (linker 1-7-13 via TBMB, on phage) was tested, and the “BINDING ASSAY SIGNAL” value was 85.
In the case of CLWPARCTHADLC (linker 1-7-13 via TBMB, on phage), the “BINDING ASSAY SIGNAL” value is reported as 74.
For CLWPARCTHQDLC (linker 1-7-13 via TBMB, on phage), the “BINDING ASSAY SIGNAL” value was 90.
CMWPARCMHQDLC (linker 1-7-13 via TBMB (inferred), on phage) was tested, and the “BINDING ASSAY SIGNAL” value was 79.
For CNWPARCTHQDLC (linker 1-7-13 via TBMB (inferred), on phage), the “BINDING ASSAY SIGNAL” value was 116.
In the case of CPWPARCLHTDLC (linker 1-7-13 via TBMB (inferred), on phage), the “BINDING ASSAY SIGNAL” value is reported as 58.
For CPWPARCTHQDLC (linker 1-7-13 via TBMB (inferred), on phage), the “BINDING ASSAY SIGNAL” value was 107.
CPWPARCTHQNLC (linker 1-7-13 via TBMB (inferred), on phage) was tested, and the “BINDING ASSAY SIGNAL” value was 69.
With CPWPARCTHTDLC (linker 1-7-13 via TBMB (inferred), on phage) the “BINDING ASSAY SIGNAL” value was 70.
CQWPARCTHSDLC (linker 1-7-13 via TBMB (inferred), on phage) was tested, and the “BINDING ASSAY SIGNAL” value was 74.
CRWPARCTHQDLC (linker 1-7-13 via TBMB (inferred), on phage) was tested, and the “BINDING ASSAY SIGNAL” value was 73.
CRWPARCTHTDLC (linker 1-7-13 via TBMB (inferred), on phage) was tested, and the “BINDING ASSAY SIGNAL” value was 59.
With CSWPARCIHQDLC (linker 1-7-13 via TBMB, on phage) the “BINDING ASSAY SIGNAL” value was 68.
For CSWPARCTHADLC (linker 1-7-13 via TBMB, on phage), the “BINDING ASSAY SIGNAL” value was 100.
In the case of CSWPARCTHSDLC (linker 1-7-13 via TBMB, on phage), the “BINDING ASSAY SIGNAL” value is reported as 59.
With CSWPARCTHSHLC (linker 1-7-13 via TBMB, on phage) the “BINDING ASSAY SIGNAL” value was 72.
In the case of CTWPARCTHADLC (linker 1-7-13 via TBMB, on phage), the “BINDING ASSAY SIGNAL” value is reported as 71.
For CTWPARCTHTDLC (linker 1-7-13 via TBMB, on phage), the “BINDING ASSAY SIGNAL” value was 88.
In the case of CTWPARCTHTDMC (linker 1-7-13 via TBMB, on phage), the “BINDING ASSAY SIGNAL” value is reported as 67.
In the case of CVWPARCTHQDLC (linker 1-7-13 via TBMB, on phage), the “BINDING ASSAY SIGNAL” value is reported as 71.
In the case of CQWPARCMHQDMC (linker 1-7-13 via TBMB (inferred), on phage), the “BINDING ASSAY SIGNAL” value is reported as 75.
CQWPARCMHQELC (linker 1-7-13 via TBMB (inferred), on phage) was tested, and the “BINDING ASSAY SIGNAL” value was 73.
For CTWPARCLHQDLC (linker 1-7-13 via TBMB, on phage), the “BINDING ASSAY SIGNAL” value was 73.
In the case of CSWPARCTHTELC (linker 1-7-13 via TBMB, on phage), the “BINDING ASSAY SIGNAL” value is reported as 69.
With CSWPARCLHTELC (linker 1-7-13 via TBMB, on phage) the “BINDING ASSAY SIGNAL” value was 68.
For CAWPARCMHDDLC (linker 1-7-13 via TBMB, on phage), the “BINDING ASSAY SIGNAL” value was 69.
CAWPARCLHADMC (linker 1-7-13 via TBMB, on phage) was tested, and the “BINDING ASSAY SIGNAL” value was 66.
With CAWPARCLHQDWC (linker 1-7-13 via TBMB, on phage) the “BINDING ASSAY SIGNAL” value was 63.
For CDWPARCMHQEFC (linker 1-7-13 via TBMB, on phage), the “BINDING ASSAY SIGNAL” value was 63.
CAWPARCTHQTMC (linker 1-7-13 via TBMB, on phage) was tested, and the “BINDING ASSAY SIGNAL” value was 61.
In the case of CTWPARCLHQHMC (linker 1-7-13 via TBMB, on phage), the “BINDING ASSAY SIGNAL” value is reported as 61.
For CSWPARCVHQDMC (linker 1-7-13 via TBMB, on phage), the “BINDING ASSAY SIGNAL” value was 61.
For CSWPARCTHAEMC (linker 1-7-13 via TBMB, on phage), the “BINDING ASSAY SIGNAL” value was 59.
For CTWPARCTHQAFC (linker 1-7-13 via TBMB, on phage), the “BINDING ASSAY SIGNAL” value was 59.

Target: T1, human plasma Kallikrein
Assay: phage binding assay
Remark: another data set of the same source
Method: Library transformant colonies, or selection output colonies, were picked and grown as individual cultures in 2TY broth containing selective antibiotic. The picked colonies were DNA-sequenced using a QIAgen PyroMark Q96 DNA sequencer to reveal the amino-acid substitution present in each clone, and were assayed for human plasma Kallikrein binding as follows. The phage-containing supernatant was harvested from the culture and phage were cyclised with tris bromomethyl benzene (TBMB) based on the methods of Heinis et al (Nature Chemical Biology vol. 5 pp 502-507 (2009)). The purified phage from this process were assayed for binding to biotinylated human plasma Kallikrein using a homogeneous plate-based binding assay; assay read-out measured on a BMG Labtech Pherastar FS plate reader. The quantitative binding data from duplicate assay samples was averaged (mean) and expressed as signal:background. […] The assay data was correlated with the peptide sequences.
Selections against human plasma Kallikrein were performed at a variety of stringencies (see Phage selections' in Methods above). All output sequences were identified and analysed for target binding (see ‘Randomisation of peptide domains—Assay of binding of individual clones’ in Methods above). Table 17 lists each unique sequence, its relative abundance in the selection output (frequency), and a rank number according to target binding strength.
In the case of CRFPFKCTHQDLC (linker 1-7-13 via TBMB (inferred), on phage), the “RANK (Kallikrein binding)” value is reported as 11.
For CSFLYKCTHQDLC (linker 1-7-13 via TBMB (inferred), on phage), the “RANK (Kallikrein binding)” value was 29.
In the case of CSFMYKCTHQDLC (linker 1-7-13 via TBMB (inferred), on phage), the “RANK (Kallikrein binding)” value is reported as 37.
With CSFPFKCTHQDLC (linker 1-7-13 via TBMB (inferred), on phage) the “RANK (Kallikrein binding)” value was 6.
With CSFPFWCTHQDLC (linker 1-7-13 via TBMB (inferred), on phage) the “RANK (Kallikrein binding)” value was 34.
With CSFPIRCTHQDLC (linker 1-7-13 via TBMB (inferred), on phage) the “RANK (Kallikrein binding)” value was 15.
In the case of CSFPWRCTHQDLC (linker 1-7-13 via TBMB (inferred), on phage), the “RANK (Kallikrein binding)” value is reported as 23.
With CSFPYKCTHQDLC (linker 1-7-13 via TBMB (inferred), on phage) the “RANK (Kallikrein binding)” value was 22.
With CSFPYRCTHQDLC (linker 1-7-13 via TBMB (inferred), on phage) the “RANK (Kallikrein binding)” value was 5.
